Assay [1] concerns the target T1, Peptide 3 (human).
T1 peptide: Biotin-APKSQDLAKIMADIRAQY
The assay is described as follows: solid phase ELISA; biotinylated peptide on plate, antibody 2 ug/ml. As to the method: (§1) (1) The peptides shown in Table 2 were synthesized, and biotin was added to the N-terminal side. (2) The synthesized peptides were dissolved in 80% DMSO solution and further diluted to 1 μg/ml with PBST. (3) After washing an ELISA plate three times with PBST, a biotinylated peptide was added thereto at 100 μL/well, and the plate was allowed to stand at room temperature for 1 hour to immobilize the peptide. Thereafter, the plate was washed three times with PBST, and Buffer I′ (10 mM NaH₂PO₄.2H₂O, 149.7 mM NaCl, 2.5 mM EDTA 2Na, 0.10% BSA, pH 7.0) was added thereto at 200 μL/well to prepare a plate stored at 4° C. overnight. (4) The plate was washed three times with PBST, and an antibody diluted to 2 μg/ml was added thereto at 50 μL/well, followed by shaking at room temperature for 1 hour. (5) The plate was washed three times with PBST, and an Anti-Mouse IgG POD antibody diluted about 5000 fold with Buffer I′ (10 mM NaH₂PO₄.2H₂O, 149.7 mM NaCl, 2.5 mM EDTA 2Na, 0.10% BSA, pH 7.0) was added thereto at 50 μL/well, followed by shaking at room temperature for 1 hour. (6) The plate was washed three times with PBST, TMB Mix (1-step Ultra TMB-ELISA (Thermo Scientific):3% H₂O₂: Phosphate-Citrate buffer (Sigma)=15:0.15:14.85) was added thereto at 100 μL/well, and the mixture was reacted at room temperature for 10 minutes. Thereafter, 1 M H₂SO₄ was added thereto at 100 μL/well to stop the reaction. (7) Absorbance of the reaction solution at 450 nm was measured with a plate reader.
(An ELISA detects its analyte on a solid surface through an enzyme-linked reagent.)

In assay [2] the target is T2, Peptide 4 (human).
T2 peptide: Biotin-LAKIMADIRAQYDELARK
Described as above. Here is the method: as §1

In assay [3] the target is T3, Peptide 5 (human).
T3 peptide: Biotin-DIRAQYDELARKNREELD
The description is as above. Here is the method: as §1

The target of assay [4] is Peptide 6 (human, biotin added to the N-terminal side). Described as above. Here is the method:
as §1

Assay [5] addresses T4, Peptide 7 (human).
T4 peptide: Biotin-NREELDKYWSQQIEESTT
The description is as above. Here is the method:
as §1

The target of assay [6] is Peptide 8 (human, biotin added to the N-terminal side). The assay is described as above. Here is the method:
as §1

Assay [7] deals with T5, Peptide 9 (human).
T5 peptide: Biotin-IEESTTVVTTQSAEVGAA
The description is as above. Here is the method: as §1

Assay [8] has as its target T6, Peptide 10 (human).
T6 peptide: Biotin-VVTTQSAEVGAAETTLTE
Described as above. Here is the method:
as §1

For assay [9], the target named is T7, Peptide 11 (human).
T7 peptide: Biotin-AEVGAAETTLTELRRTVQ
The description is as above. Here is the method:
as §1

Assay [10] deals with T8, Peptide 12 (human).
T8 peptide: Biotin-ETTLTELRRTVQSLEIDL
The assay is described as above. As to the method: as §1

Assay [11] concerns the target T9, Peptide 13 (human).
T9 peptide: Biotin-LRRTVQSLEIDLDSMRNL
The description is as above. Here is the method:
as §1

Assay [12] concerns the target T10, Peptide 14 (human).
T10 peptide: Biotin-SLEIDLDSMRNLKASLEN
The description is as above. As to the method:
as §1

Assay [13] has as its target T11, Peptide 15 (human).
T11 peptide: Biotin-DSMRNLKASLENSLREVE
The assay is described as above. Here is the method:
as §1

The target in assay [14] is T12, Peptide 16 (human).
T12 peptide: Biotin-KASLENSLREVEARYALQ
Described as above. Here is the method: as §1

Assay [15] deals with T13, Peptide 17 (human).
T13 peptide: Biotin-SLREVEARYALQMEQLNG
Described as above. As to the method:
as §1

Assay [16] has as its target T14, Peptide 18 (human).
T14 peptide: Biotin-ARYALQMEQLNGILLHLE
The description is as above. Here is the method: as §1

For assay [17], the target named is T15, Peptide 25 (human).
T15 peptide: Biotin-VKLEAEIATYRRLLEDGE
The assay is described as above. As to the method:
as §1

In assay [18] the target is T16, Peptide 26 (human).
T16 peptide: Biotin-IATYRRLLEDGEDFNLGD
The assay is described as above. Here is the method: as §1

For assay [19], the target named is T17, Peptide 27 (human).
T17 peptide: Biotin-LLEDGEDFNLGDALD
The assay is described as above. As to the method:
as §1

Assay [20] has as its target T18, fCK18 in apoptosis-induced HepG2 cell culture supernatant (human, UniProt P05783 239-397).
T18 construct: Natural CK18 fragment from the culture supernatant of apoptosis-induced HepG2 cells (band around 18 KDa); also called fCK18 in apoptosis-inducing cells
T18 sequence: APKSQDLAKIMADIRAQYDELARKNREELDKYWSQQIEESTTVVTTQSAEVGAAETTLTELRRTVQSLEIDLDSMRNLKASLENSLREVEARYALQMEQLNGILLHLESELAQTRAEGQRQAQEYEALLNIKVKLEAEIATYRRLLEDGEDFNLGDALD
The assay is described as follows: HISCL sandwich immunoassay; K18-624 magnetic microbeads capture, K18-328Fab-ALP detector; fCK18 0.74 ng/mL.

The target of assay [21] is T18, fCK18 in apoptosis-induced HepG2 cell …. Put plainly: HISCL sandwich immunoassay; K18-624 magnetic microbeads capture, K18-328Fab-ALP detector; fCK18 182.28 ng/mL.

Where no end group is shown, it is not given here. The star is where a group is joined. Biotin = O=C1N[C@H]2[C@H](CS[C@H]2CCCCC(=O)*)N1

B1: K18-328 antibody (antibody, V domains shown)
VH: QVHLQQSAAELARPGASVKMSCKASGYTFTNYTIHWIKQRPGQGLEWIGYINPSSGYTDYNQNFKDKTTLTADKSSTTVYMQLSSLTSEDSAVYYCARQIPFAYWGQGTLVTVSA
VL: not shown
notes: Mouse monoclonal antibody from a hybridoma (immunogen full length rCK18)
On to B1, for which the Abs450 in assay [1] was 0.04; in assay [2], 0.01; in [3] it was -0.01; in assay [4], 0.01; in assay [5], 0; in assay [6], -0.01. The Abs450 in [7] is -0.01; in assay [8] it was 0; in assay [9], 0.01; in assay [10] it was 0; in assay [11], 0.01; in assay [12], -0.01. Also, the Abs450 is 0 in [13], 0.04 in assay [14], 1.55 in assay [15] and 0.02 in assay [16].

B2: K18-624 antibody (antibody, V domains shown)
VH: DVQLVESGGGLVQPGGSRKLSCAASGFTFSSFGMHWVRQAPEKGLEWVAYISSGSTTIYYADTVKGRFTISRDNPKNTLFLQMTSLRSEDTAMYYCARRGMITTGAWFAYWGQGTLVTVSA
VL: DILLTQSPAILSVSPGERVSFSCRASQRIGTSIHWYQQRTNGSPRLLIKYASESISGIPSRFSGSGSGTDFTLSINSVESEDIADYYCQQSYIWPFTFGSGTKLEIK
notes: Mouse monoclonal antibody from a hybridoma (Balb/C mouse immunised with Peptide 1-KLH)
Turning to B2, the Abs450 in assay [17] was 0.14; in assay [18], 0.14; in assay [19] it was 2.34. Moreover, the S/N ratio in assay [20] turned out to be 9.4; in [21], 2070.

The values above are taken from patent publication US20220267427A1 (SYSMEX, published 2022).
